As a reminder, the Kd is the constant that tells how readily two partners part at equilibrium.

These results are taken from publication PMC3620054, “Lsb1 Is a Negative Regulator of Las17 Dependent Actin Polymerization Involved in Endocytosis” (PLoS ONE, 2013).

B1: SH3-Lsb2 (purified, GST cleaved off) (domain or fragment, S. cerevisiae, UniProt Q06449 59-110, looked up)
chain: VEALYQFDPQQDGDLGLKPGDKVQLLEKLSPEWYKGSCNGRTGIFPANYVKP
notes: Lsb2 (Pin3), S. cerevisiae, SH3 domain, residues 59-110, from pGEX4T-1; also called SH3 domain of Lsb2; source: E. coli BL21, purified (glutathione Sepharose, thrombin cleavage, size exclusion chromatography)
B2: Lsb2 (purified, GST cleaved off) (natural protein, S. cerevisiae, UniProt Q06449 1-215, looked up)
chain: MSASLINRSLTNIRTELDFLKGSNVISNDVYDQINKSLPAKWDPANAPRNASPASLEYVEALYQFDPQQDGDLGLKPGDKVQLLEKLSPEWYKGSCNGRTGIFPANYVKPAFSGSNGPSNLPPPPQYKAQELQQIPTQNSAASSYQQQPFPPPSTNYYQQPQQQPQQAPPPQQQQQQQQHQSSHSHLKSFGSKLGNAAIFGAGASIGSDIVNNIF
notes: Lsb2 (Pin3), S. cerevisiae, full-length, from pGEX4T-1; also called full-length Lsb2; Pin3; source: E. coli BL21, purified (glutathione Sepharose, thrombin cleavage, size exclusion chromatography)
B3: Lsb1 (purified, GST cleaved off) (natural protein, S. cerevisiae, UniProt P53281 1-241, looked up)
chain: MSASLVNRSLKNIRNELEFLKESNVISGDIFELINSKLPEKWDGNQRSPQNADTEEYVEALYDFEAQQDGDLSLKTGDKIQVLEKISPDWYRGKSNNKIGIFPANYVKPAFTRSASPKSAEAASSSTVSRPSVPPPSYEPAASQYPSQQVSAPYAPPAGYMQAPPPQQQQAPLPYPPPFTNYYQQPQQQYAPPSQQAPVEAQPQQSSGASSAFKSFGSKLGNAAIFGAGSAIGSDIVNSIF
notes: Lsb1, S. cerevisiae, full-length, from pGEX4T-1; also called full-length Lsb1; source: E. coli BL21, purified (glutathione Sepharose, thrombin cleavage, size exclusion chromatography)
B4: SH3-Lsb1 (purified, GST cleaved off) (domain or fragment, S. cerevisiae, UniProt P53281 57-109, looked up)
chain: YVEALYDFEAQQDGDLSLKTGDKIQVLEKISPDWYRGKSNNKIGIFPANYVKP
notes: Lsb1, S. cerevisiae, SH3 domain, residues 57-109, from pGEX4T-1; also called SH3 domain of Lsb1; source: E. coli BL21, purified (glutathione Sepharose, thrombin cleavage, size exclusion chromatography)

For this test, the target named is T1, Las17 (purified recombinant) (S. cerevisiae, UniProt Q12446 1-633).
T1 construct: Las17, the WASP homolog of S. cerevisiae; also called WASP homolog; source: recombinant, purified, produced as reported [25], [45], [46]
T1 sequence (Q12446 whole entry): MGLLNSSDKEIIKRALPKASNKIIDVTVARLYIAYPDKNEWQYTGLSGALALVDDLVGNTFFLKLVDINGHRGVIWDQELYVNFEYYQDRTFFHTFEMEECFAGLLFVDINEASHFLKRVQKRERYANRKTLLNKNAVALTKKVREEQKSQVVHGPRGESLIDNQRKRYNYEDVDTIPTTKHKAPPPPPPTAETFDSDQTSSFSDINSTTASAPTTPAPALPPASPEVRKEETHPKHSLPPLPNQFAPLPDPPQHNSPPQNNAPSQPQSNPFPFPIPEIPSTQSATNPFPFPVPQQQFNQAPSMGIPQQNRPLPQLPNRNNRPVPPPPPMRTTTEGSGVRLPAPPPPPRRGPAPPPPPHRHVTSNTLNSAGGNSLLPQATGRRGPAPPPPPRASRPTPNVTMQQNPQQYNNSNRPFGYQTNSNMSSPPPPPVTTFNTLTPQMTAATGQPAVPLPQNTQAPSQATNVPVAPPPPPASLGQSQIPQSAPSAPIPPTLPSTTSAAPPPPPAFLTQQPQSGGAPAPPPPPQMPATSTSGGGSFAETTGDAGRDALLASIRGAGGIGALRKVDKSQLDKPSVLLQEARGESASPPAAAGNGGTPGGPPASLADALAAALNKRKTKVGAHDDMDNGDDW
In words: SPR; Las17 coupled via an amino group to a CM5 chip, Biacore3000, 25°C, HBS-EP buffer, Lsb1, Lsb2 or their SH3 domains at 25 nM to 10 µM. The note with it: both partners purified.
As to B1, the Kd was 730 nM. Next, B2: 79 nM; B3: 30 nM. In the case of B4, the Kd is 792 nM.
